In the assay the target is PD-L1 (human) (UniProt Q9NZQ7). Nature of the assay: cell-based or functional assay.
PD-L1 (human), sequence (Q9NZQ7 19-290): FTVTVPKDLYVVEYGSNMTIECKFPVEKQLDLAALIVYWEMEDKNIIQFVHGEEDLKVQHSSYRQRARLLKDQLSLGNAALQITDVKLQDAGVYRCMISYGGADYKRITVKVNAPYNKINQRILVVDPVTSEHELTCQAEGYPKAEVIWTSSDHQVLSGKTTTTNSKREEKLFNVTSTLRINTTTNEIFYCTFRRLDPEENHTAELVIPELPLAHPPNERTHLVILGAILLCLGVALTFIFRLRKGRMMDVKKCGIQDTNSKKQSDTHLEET

For the substance “CD80 IgV-Fc (inert) H18A/A26N/E35D/M47L/V68M/A71G/D90G (from UniProt P33681 35-141) (Fc fusion)”, the RLU, Jurkat/IL2 + CHO/OKT3/PD-L1 Reporter Assay, CD80 Conc 5.0 nM was 1050 RLU.

“CD80 IgV-Fc (inert) H18C/A26P/E35D/M47L/V68M/A71G (from UniProt P33681 35-141) (Fc fusion)”: the RLU, Jurkat/IL2 + CHO/OKT3/PD-L1 Reporter Assay, CD80 Conc 5.0 nM was determined as 936 RLU.

Consider “CD80 IgV-Fc (inert) H18F/A26P/E35D/M47I/V68M/A71G/D90G (from UniProt P33681 35-141) (Fc fusion)”, for which the RLU, Jurkat/IL2 + CHO/OKT3/PD-L1 Reporter Assay, CD80 Conc 5.0 nM was 926 RLU.

For the substance “CD80 IgV-Fc (inert) H18R/A26P/E35D/D46N/M47V/V68M/A71G/D90P (from UniProt P33681 35-141) (Fc fusion)”, the RLU, Jurkat/IL2 + CHO/OKT3/PD-L1 Reporter Assay, CD80 Conc 5.0 nM came out at 972 RLU.

For the substance “CD80 IgV-Fc (inert) H18T/A26N/E35D/M47L/V68M/A71G (from UniProt P33681 35-141) (Fc fusion)”, the RLU, Jurkat/IL2 + CHO/OKT3/PD-L1 Reporter Assay, CD80 Conc 5.0 nM is 1050 RLU.

“CD80 IgV-Fc (inert) H18V/A26D/E35D/M47V/V68M/A71G/D90G (from UniProt P33681 35-141) (Fc fusion)”: the RLU, Jurkat/IL2 + CHO/OKT3/PD-L1 Reporter Assay, CD80 Conc 5.0 nM turned out to be 771 RLU.

Consider “CD80 IgV-Fc (inert) H18V/A26K/E35D/M47L/V68M/A71G (from UniProt P33681 35-141) (Fc fusion)”, for which the RLU, Jurkat/IL2 + CHO/OKT3/PD-L1 Reporter Assay, CD80 Conc 5.0 nM worked out at 957 RLU.

For “CD80 IgV-Fc (inert) H18V/A26N/E35D/M47V/V68M/A71G (from UniProt P33681 35-141) (Fc fusion)”, the RLU, Jurkat/IL2 + CHO/OKT3/PD-L1 Reporter Assay, CD80 Conc 5.0 nM is 985 RLU.

In the case of “CD80 IgV-Fc (inert) H18V/A26R/E35D/M47L/V68M/A71G/D90G (from UniProt P33681 35-141) (Fc fusion)”, the RLU, Jurkat/IL2 + CHO/OKT3/PD-L1 Reporter Assay, CD80 Conc 5.0 nM stood at 738 RLU.

With “CD80 IgV-Fc (inert) H18Y/A26P/E35D/M47I/V68M/A71G (from UniProt P33681 35-141) (Fc fusion)”, the RLU, Jurkat/IL2 + CHO/OKT3/PD-L1 Reporter Assay, CD80 Conc 5.0 nM is 761 RLU.

For “CD80 IgV-Fc (inert) H18Y/A26Q/E35D/M47T/V68M/A71G/D90G (from UniProt P33681 35-141) (Fc fusion)”, the RLU, Jurkat/IL2 + CHO/OKT3/PD-L1 Reporter Assay, CD80 Conc 5.0 nM stood at 994 RLU.

With “CD80 IgV-Fc (inert) H18Y/E35D/M47V/V68M/A71G (from UniProt P33681 35-141) (Fc fusion)”, the RLU, Jurkat/IL2 + CHO/OKT3/PD-L1 Reporter Assay, CD80 Conc 5.0 nM worked out at 963 RLU.

With “CD80 IgV-Fc D46V/M47I/A71G (from UniProt P33681 35-141) (Fc fusion)”, the Jurkat/IL2 + CHO/OKT3/PD-L1 reporter assay, RLU at CD80 Conc 5.0 nM is 1600 RLU.

In the case of “CD80 IgV-Fc E35D/D46E (from UniProt P33681 35-141) (Fc fusion)”, the Jurkat/IL2 + CHO/OKT3/PD-L1 reporter assay, RLU at CD80 Conc 5.0 nM came out at 1960 RLU.

In the case of “CD80 IgV-Fc E35D/D46E/A91G (from UniProt P33681 35-141) (Fc fusion)”, the Jurkat/IL2 + CHO/OKT3/PD-L1 reporter assay, RLU at CD80 Conc 5.0 nM came out at 395 RLU.

As to “CD80 IgV-Fc E35D/D46E/L85M (from UniProt P33681 35-141) (Fc fusion)”, the Jurkat/IL2 + CHO/OKT3/PD-L1 reporter assay, RLU at CD80 Conc 5.0 nM was 1410 RLU.

In the case of “CD80 IgV-Fc E35D/D46E/M47I (from UniProt P33681 35-141) (Fc fusion)”, the Jurkat/IL2 + CHO/OKT3/PD-L1 reporter assay, RLU at CD80 Conc 5.0 nM was found to be 1920 RLU.

Regarding “CD80 IgV-Fc E35D/L97R (from UniProt P33681 35-141) (Fc fusion)”, the Jurkat/IL2 + CHO/OKT3/PD-L1 reporter assay, RLU at CD80 Conc 5.0 nM stood at 914 RLU.

Take “CD80 IgV-Fc E35D/M43I/D46E/A71G/L85M (from UniProt P33681 35-141) (Fc fusion)”: the Jurkat/IL2 + CHO/OKT3/PD-L1 reporter assay, RLU at CD80 Conc 5.0 nM was found to be 1480 RLU.

(Values after patent US20210130436A1.)
